Biological target: the molecule itself
Experiment: X-ray crystal structure of human dCK
Excerpt: Crystals were transferred to a cryoprotectant solution that in the case of the citrate condition was made of mineral oil (Sigma) while for the crystals grown in PEG it was composed of the mother liquor and 10% (w/v) xylitol-10% (w/v) sucrose. Once the crystals were mounted in loops, they were frozen by directly immersing them in liquid nitrogen. X-ray data were collected at the Advanced Photon Source using the BioCARS beamlines BM-C and BM-D, and the SERCAT beamline ID-22.
Data for the MAD data set were collected to 2.3 Å resolution. A partially built model into the MAD electron density was used to solve the tetragonal crystals. The electron density for dCK extended to the last residue (Leu260), while the N-terminus (residues 1 to 19) was flexible and could not be modeled. […] The ligands were refined without conformational torsion-angle restraints in order to prevent bias towards a particular ring conformation for the sugars.

B1: Human deoxycytidine kinase (dCK), wild type (enzyme)
chain: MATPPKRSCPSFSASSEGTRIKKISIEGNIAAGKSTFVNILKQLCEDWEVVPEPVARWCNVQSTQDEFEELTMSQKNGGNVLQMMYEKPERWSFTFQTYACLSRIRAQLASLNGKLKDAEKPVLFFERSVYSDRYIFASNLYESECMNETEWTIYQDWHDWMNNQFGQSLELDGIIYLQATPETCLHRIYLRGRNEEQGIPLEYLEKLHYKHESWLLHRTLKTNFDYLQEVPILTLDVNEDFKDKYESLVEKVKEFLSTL
modifications: selenomethionine-substituted protein was used for the MAD phasing data set
notes: Recombinant protein from E. coli; the His-tag was cleaved by thrombin before crystallisation; Residues 1 to 19 were flexible and not modelled; It is a homodimer in the crystal structure; also called human dCK; WT dCK
**Q.** Does B1 bind?
**A.** binds

— patent US20110129470A1 (BOARD OF TRUSTEES OF THE UNIVERSITY OF ILLNOIS, published 2011)
